# Experimental data reported in IntAct's records for PubMed 18256285.
# Molecular target: sdcb1_human SDCBP (UniProt O00560)
# UniProt O00560, sequence (O00560 whole entry): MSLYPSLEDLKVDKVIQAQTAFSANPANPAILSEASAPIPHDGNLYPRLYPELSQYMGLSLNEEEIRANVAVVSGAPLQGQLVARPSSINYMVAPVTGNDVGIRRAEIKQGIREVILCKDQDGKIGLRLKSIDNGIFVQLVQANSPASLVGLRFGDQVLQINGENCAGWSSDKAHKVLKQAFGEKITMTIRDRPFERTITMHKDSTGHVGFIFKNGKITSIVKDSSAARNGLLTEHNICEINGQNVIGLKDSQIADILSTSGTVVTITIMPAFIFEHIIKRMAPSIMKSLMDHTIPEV
row,Substance,effect of a mutation on the interaction
1,Frizzled-7 (Homo sapiens) (from UniProt O75084) T572A,disrupting interaction
2,Frizzled-7 (Homo sapiens) (from UniProt O75084) T572A;V574A,disrupting interaction
3,Frizzled-7 (Homo sapiens) (from UniProt O75084) V574A,decreasing interaction
